The supplement of paper PMC9112550, “Optimization of the antimicrobial peptide Bac7 by deep mutational scanning” (BMC Biology, 2022)

Tested on: Escherichia coli TOP10
Assay: shrunken log2 fold change of peptide-encoding DNA abundance (4.5 h post-induction vs induction); higher = less antimicrobial activity (less host growth inhibition)
Conditions: time post-induction: 4.5 h; library: site-saturation at positions 5, 18, 19, 20
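Note: peptides expressed intracellularly from a pBAD plasmid library in pooled LB shake-flask culture, induced with 0.3% L-arabinose, DNA abundance read by NGS, three biological replicates, DESeq2 with apeglm shrinkage.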

Sequence | shrunken log2 fold change
RRIRQRPPRLPRPRPRPPWVPRP | 0.696
RRIRNRPPRLPRPRPRPPRGPRP | 1.3
RRIRHRPPRLPRPRPRPAYAPRP | -0.182
RRIRFRPPRLPRPRPRPLLGPRP | 0.123
RRIRWRPPRLPRPRPRPHMPPRP | -0.768
RRIRIRPPRLPRPRPRPCSWPRP | -0.31
RRIRWRPPRLPRPRPRPRTMPRP | 0.205
RRIRSRPPRLPRPRPRPASAPRP | 0.243
RRIRCRPPRLPRPRPRPRFDPRP | 0.136
RRIRPRPPRLPRPRPRPECNPRP | -0.0298
RRIRLRPPRLPRPRPRPFYSPRP | -0.133
RRIRPRPPRLPRPRPRPYLEPRP | -0.634
RRIRNRPPRLPRPRPRPYAVPRP | -0.0739
RRIRMRPPRLPRPRPRPRIQPRP | 0.203
RRIRMRPPRLPRPRPRPYLWPRP | 0.0857
RRIRERPPRLPRPRPRPHVLPRP | -0.202
RRIRNRPPRLPRPRPRPAFNPRP | 0.179
RRIRRRPPRLPRPRPRPHDNPRP | -0.13
RRIRHRPPRLPRPRPRPHRQPRP | -0.0335
RRIRPRPPRLPRPRPRPIDNPRP | -0.15
RRIRERPPRLPRPRPRPTEYPRP | -0.123
RRIRARPPRLPRPRPRPNYHPRP | -0.425
RRIRSRPPRLPRPRPRPSWSPRP | -0.0102
RRIRYRPPRLPRPRPRPSPQPRP | -0.195
RRIRCRPPRLPRPRPRPGFFPRP | 0.0565

Sequence | shrunken log2 fold change
RRIRCRPPRLPRPRPRPKRHPRP | 0.341
RRIRFRPPRLPRPRPRPGHCPRP | 0.0688
RRIRERPPRLPRPRPRPIINPRP | -0.702
RRIRCRPPRLPRPRPRPRDCPRP | 0.313
RRIRWRPPRLPRPRPRPVMWPRP | 0.236
RRIRDRPPRLPRPRPRPRAQPRP | 0.457
RRIRDRPPRLPRPRPRPNNNPRP | -0.667
RRIRERPPRLPRPRPRPWSQPRP | -0.0521
RRIRHRPPRLPRPRPRPGDQPRP | -0.0414
RRIRERPPRLPRPRPRPNPKPRP | -0.0343
RRIRIRPPRLPRPRPRPCIYPRP | -0.0179
RRIRYRPPRLPRPRPRPMCRPRP | -0.181
RRIRNRPPRLPRPRPRPVCVPRP | -0.04
RRIRGRPPRLPRPRPRPIFYPRP | 0.0354
RRIRQRPPRLPRPRPRPSDYPRP | -0.0346
RRIRIRPPRLPRPRPRPVPMPRP | -0.143
RRIRERPPRLPRPRPRPGTDPRP | 8.37e-05
RRIRWRPPRLPRPRPRPIHEPRP | 0.041
RRIRVRPPRLPRPRPRPNWRPRP | 0.4
RRIRTRPPRLPRPRPRPMTCPRP | -0.0817
RRIRFRPPRLPRPRPRPHRAPRP | -0.0573
RRIRMRPPRLPRPRPRPTEHPRP | 0.443
RRIRPRPPRLPRPRPRPTRWPRP | -0.0766
RRIRIRPPRLPRPRPRPYVVPRP | -1.54
RRIRGRPPRLPRPRPRPASPPRP | 0.323

Sequence | shrunken log2 fold change
RRIRVRPPRLPRPRPRPSTMPRP | -0.213
RRIRHRPPRLPRPRPRPKGYPRP | -0.0529
RRIRVRPPRLPRPRPRPVNLPRP | -0.322
RRIRRRPPRLPRPRPRPDWVPRP | 0.037
RRIRIRPPRLPRPRPRPCLWPRP | 0.0796
RRIRPRPPRLPRPRPRPKDFPRP | -0.141
RRIRQRPPRLPRPRPRPESIPRP | 0.0598
RRIRHRPPRLPRPRPRPMTWPRP | 0.148
RRIRCRPPRLPRPRPRPLNLPRP | -0.489
RRIRKRPPRLPRPRPRPKLKPRP | 0.585
RRIRKRPPRLPRPRPRPFLIPRP | -0.19
RRIRRRPPRLPRPRPRPSAIPRP | 0.0689
RRIRSRPPRLPRPRPRPLFTPRP | -0.0175
RRIRERPPRLPRPRPRPKAWPRP | 0.0873
RRIRGRPPRLPRPRPRPAVLPRP | 0.394
RRIRKRPPRLPRPRPRPQSIPRP | 0.147
RRIRRRPPRLPRPRPRPAFAPRP | 0.456
RRIRARPPRLPRPRPRPWGDPRP | 0.376
RRIRCRPPRLPRPRPRPMKIPRP | 0.13
RRIRMRPPRLPRPRPRPQLLPRP | 0.0491
RRIRERPPRLPRPRPRPHTMPRP | -0.0656
RRIRNRPPRLPRPRPRPIPVPRP | 1.22
RRIRIRPPRLPRPRPRPNRDPRP | -0.0377
RRIRNRPPRLPRPRPRPYFQPRP | -0.317
RRIRHRPPRLPRPRPRPQNTPRP | -0.871

Sequence | shrunken log2 fold change
RRIRWRPPRLPRPRPRPSGGPRP | 2.77
RRIRCRPPRLPRPRPRPYQEPRP | -0.276
RRIRYRPPRLPRPRPRPESIPRP | -0.42
RRIRTRPPRLPRPRPRPENFPRP | -0.0131
RRIRTRPPRLPRPRPRPQAQPRP | 0.017
RRIRRRPPRLPRPRPRPFATPRP | 0.814
RRIRYRPPRLPRPRPRPWPFPRP | -0.218
RRIRWRPPRLPRPRPRPRPCPRP | 0.514
RRIRGRPPRLPRPRPRPNSDPRP | -0.0204
RRIRFRPPRLPRPRPRPLVWPRP | 0.0758
RRIRYRPPRLPRPRPRPDNFPRP | -1.09
RRIRDRPPRLPRPRPRPNNRPRP | -0.178
RRIRYRPPRLPRPRPRPGFDPRP | -0.205
RRIRTRPPRLPRPRPRPNWDPRP | 0.00303
RRIRIRPPRLPRPRPRPSYMPRP | -1.53
RRIRVRPPRLPRPRPRPMINPRP | -0.257
RRIRERPPRLPRPRPRPGWYPRP | -0.0987
RRIRRRPPRLPRPRPRPFALPRP | -0.00461
RRIRWRPPRLPRPRPRPMLYPRP | 0.0136
RRIRNRPPRLPRPRPRPNMAPRP | -0.214
RRIRSRPPRLPRPRPRPNQTPRP | 0.0606
RRIRKRPPRLPRPRPRPGKMPRP | -0.0991
RRIRDRPPRLPRPRPRPFEAPRP | 0.277
RRIRSRPPRLPRPRPRPNTCPRP | -0.808
RRIRPRPPRLPRPRPRPQWAPRP | 0.052

Sequence | shrunken log2 fold change
RRIRYRPPRLPRPRPRPECEPRP | -0.185
RRIRQRPPRLPRPRPRPCWVPRP | -0.0437
RRIRPRPPRLPRPRPRPYALPRP | -1.08
RRIRMRPPRLPRPRPRPQELPRP | 0.0211
RRIRGRPPRLPRPRPRPSYNPRP | 0.0742
RRIRKRPPRLPRPRPRPFISPRP | -0.113
RRIRLRPPRLPRPRPRPNCHPRP | -0.156
RRIRFRPPRLPRPRPRPIAHPRP | -0.109
RRIRYRPPRLPRPRPRPCSSPRP | -0.941
RRIRKRPPRLPRPRPRPYVWPRP | -0.36
RRIRARPPRLPRPRPRPSRTPRP | 0.471
RRIRWRPPRLPRPRPRPFMCPRP | -0.245
RRIRARPPRLPRPRPRPESSPRP | 2.39
RRIRERPPRLPRPRPRPVRRPRP | -0.172
RRIRCRPPRLPRPRPRPLTLPRP | -0.582
RRIRQRPPRLPRPRPRPLSIPRP | -0.325
RRIRDRPPRLPRPRPRPMYSPRP | 0.0101
RRIRHRPPRLPRPRPRPKIWPRP | -0.0285
RRIRIRPPRLPRPRPRPTMNPRP | -1.01
RRIRYRPPRLPRPRPRPQSCPRP | 0.0148
RRIRSRPPRLPRPRPRPGKFPRP | -0.111
RRIRPRPPRLPRPRPRPRNSPRP | 0.0183
RRIRERPPRLPRPRPRPFIDPRP | -0.288
RRIRSRPPRLPRPRPRPWKWPRP | 0.0473
RRIRFRPPRLPRPRPRPEYRPRP | -0.218

Sequence | shrunken log2 fold change
RRIRWRPPRLPRPRPRPYEPPRP | -0.261
RRIRFRPPRLPRPRPRPYQDPRP | -0.151
RRIRRRPPRLPRPRPRPALMPRP | 0.195
RRIRMRPPRLPRPRPRPHWRPRP | 0.0569
RRIRGRPPRLPRPRPRPPPVPRP | 1.25
RRIRERPPRLPRPRPRPYVCPRP | -1.6
RRIRHRPPRLPRPRPRPWNLPRP | -0.278
RRIRGRPPRLPRPRPRPIECPRP | 0.146
RRIRVRPPRLPRPRPRPIEVPRP | -0.141
RRIRFRPPRLPRPRPRPFETPRP | -0.158
RRIRVRPPRLPRPRPRPQTQPRP | 0.104
RRIRLRPPRLPRPRPRPYEWPRP | -0.00151
RRIRARPPRLPRPRPRPRADPRP | 0.924
RRIRQRPPRLPRPRPRPSMPPRP | -0.0542
RRIRSRPPRLPRPRPRPEDEPRP | -0.0488
RRIRMRPPRLPRPRPRPRFYPRP | 0.322
RRIRWRPPRLPRPRPRPDCEPRP | 2.54
RRIRFRPPRLPRPRPRPETKPRP | -0.0125
RRIRWRPPRLPRPRPRPHWFPRP | 0.0392
RRIRVRPPRLPRPRPRPADPPRP | 0.0239
RRIRLRPPRLPRPRPRPFAHPRP | -0.367
RRIRMRPPRLPRPRPRPSNSPRP | -0.192
RRIRSRPPRLPRPRPRPICEPRP | 0.0675
RRIRGRPPRLPRPRPRPRYTPRP | 0.178
RRIRIRPPRLPRPRPRPNMCPRP | 0.0488
